Patent US12668636B2, “Pharmaceutical combinations” (BERLIN-CHEMIE AG, priority 2017, dated 2026)

How the values were obtained:
LY75 on COLO205 cells = target: T1, LY75 on COLO205 cells (Homo sapiens, UniProt O60449); experiment: Competitive FACS binding analysis; conditions: blocking antibody from 250 nM, 3 fold serial dilution, conjugate 1 nM (FIG. 5b)
T1 construct: COLO205 cells (ATCC, catalog #CCL-222) were detached from tissue culture flasks; host or cells: COLO205
Description: COLO205 cells (ATCC, catalog #CCL-222) were detached from tissue culture flasks with Cell Stripper (Cellgro, catalog #MT-25-056CI). Cells were washed and resuspended in FACS buffer (PBS+2% FBS), neutralized with growth media, and counted. Cells were plated at 50,000 cells per well in a V Bottom 96-well plate. Cells were washed once with FACS buffer (PBS (Fisher, catalog #SH30028-03)+2% FBS). An anti-LY75-mAb (Selected from Example 1) or LY75_A1 was added to wells starting at 250 nM and diluted serially 3 fold and applied to the relevant wells for 45 minutes on ice. Test wells that required single or multiple staining steps were left in FACS buffer as appropriate to ensure the final staining was completed simultaneously for all conditions tested. Two wells were left unstained in FACS buffer as controls.
After the incubation with blocking antibody, cells were washed twice in FACS buffer. The cells were resuspended in FACS buffer containing the anti-LY75-mAb conjugated to MCC-DM1 (1 nM) and incubated on ice for 45 minutes. The cells were washed as above and resuspended in FACS buffer plus 1 ug/ml mouse anti-maytansine antibody and incubated in ice for 45 minutes. […] Mean fluorescence intensity of each sample was determined using a Guava EasyCyte Plus HT Flow Cytometer (96 well plate formats) and the raw data was analyzed using the Guava Cytosoft.

LY75 = target: T2, LY75 (Homo sapiens, UniProt O60449); experiment: Immunohistochemistry using monoclonal antibody to LY75; conditions: FFPE Triple Negative breast cancer samples
T2 construct: from tissue; host or cells: FFPE triple negative breast cancer sections
T2 sequence (O60449 28-1722): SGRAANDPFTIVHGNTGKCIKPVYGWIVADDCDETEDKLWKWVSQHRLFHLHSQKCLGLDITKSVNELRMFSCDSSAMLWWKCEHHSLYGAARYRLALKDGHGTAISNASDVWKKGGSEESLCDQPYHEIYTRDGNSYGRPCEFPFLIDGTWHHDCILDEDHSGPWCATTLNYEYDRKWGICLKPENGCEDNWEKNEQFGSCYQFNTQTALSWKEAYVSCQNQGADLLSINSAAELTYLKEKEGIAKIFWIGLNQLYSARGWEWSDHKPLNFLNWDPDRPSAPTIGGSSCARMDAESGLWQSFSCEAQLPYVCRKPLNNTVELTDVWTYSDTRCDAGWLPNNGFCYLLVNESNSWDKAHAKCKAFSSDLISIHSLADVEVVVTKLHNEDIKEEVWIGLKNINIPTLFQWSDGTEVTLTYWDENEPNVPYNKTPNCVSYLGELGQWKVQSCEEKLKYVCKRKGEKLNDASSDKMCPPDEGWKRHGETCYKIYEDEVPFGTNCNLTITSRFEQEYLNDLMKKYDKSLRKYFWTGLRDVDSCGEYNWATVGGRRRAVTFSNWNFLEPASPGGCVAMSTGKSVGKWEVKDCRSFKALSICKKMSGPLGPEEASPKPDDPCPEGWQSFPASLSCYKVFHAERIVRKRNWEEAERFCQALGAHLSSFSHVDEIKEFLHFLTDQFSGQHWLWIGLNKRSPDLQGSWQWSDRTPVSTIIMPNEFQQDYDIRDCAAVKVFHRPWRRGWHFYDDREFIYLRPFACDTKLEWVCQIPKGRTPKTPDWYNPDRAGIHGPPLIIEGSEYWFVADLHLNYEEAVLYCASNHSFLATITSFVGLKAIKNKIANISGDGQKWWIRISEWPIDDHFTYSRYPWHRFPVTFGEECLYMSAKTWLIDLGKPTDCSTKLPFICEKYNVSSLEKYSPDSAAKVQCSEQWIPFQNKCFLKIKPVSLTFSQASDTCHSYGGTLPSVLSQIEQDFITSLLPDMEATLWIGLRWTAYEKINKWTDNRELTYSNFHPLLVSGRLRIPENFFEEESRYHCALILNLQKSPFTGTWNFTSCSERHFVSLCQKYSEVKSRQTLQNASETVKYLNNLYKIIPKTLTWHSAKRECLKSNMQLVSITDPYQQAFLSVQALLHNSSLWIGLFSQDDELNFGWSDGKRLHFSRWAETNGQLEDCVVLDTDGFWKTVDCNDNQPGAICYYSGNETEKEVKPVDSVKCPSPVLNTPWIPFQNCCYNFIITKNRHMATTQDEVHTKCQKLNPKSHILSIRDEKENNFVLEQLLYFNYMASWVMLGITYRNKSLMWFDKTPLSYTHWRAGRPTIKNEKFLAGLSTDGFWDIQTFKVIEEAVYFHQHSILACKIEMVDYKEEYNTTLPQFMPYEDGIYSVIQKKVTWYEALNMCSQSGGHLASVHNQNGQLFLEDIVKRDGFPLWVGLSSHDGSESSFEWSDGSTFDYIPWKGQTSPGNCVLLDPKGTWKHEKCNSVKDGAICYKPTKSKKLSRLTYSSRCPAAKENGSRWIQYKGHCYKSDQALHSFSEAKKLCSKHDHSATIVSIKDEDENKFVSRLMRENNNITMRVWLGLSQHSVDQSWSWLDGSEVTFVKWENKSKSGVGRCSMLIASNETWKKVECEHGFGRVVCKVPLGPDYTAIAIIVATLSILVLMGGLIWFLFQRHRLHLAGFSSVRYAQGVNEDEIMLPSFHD
Description: FFPE slides were deparaffinised in xylene (2×3 minutes) then rehydrated through 1:1 xylene: 100% ethanol (1×3 minutes), 100% ethanol (2×3 minutes), 95% ethanol (1×3 minutes), 70% ethanol (1×3 minutes), 50% ethanol (1×3 minutes), and tap water (1×3 minutes).
The LY75 antigen was retrieved using microwave heat, high power until boiling then low power for 10 minutes in 50 mL 1× citrate buffer in a Coplin jar. Slides were then left to cool to room temperature for a further 15 min, then washed in tap water, 3 minutes. Circles were drawn around each tissue section/TMA with a hydrophobic barrier pen and slides were then washed 3 times in PBS, 3 minutes each wash.
The primary anti-LY75 antibody was diluted in serum free protein block (SFPB) to obtain a solution with a concentration 20-fold greater than the final desired concentration (20 μg/mL for 1 μg/mL final). The secondary antibody, goat anti-human immunoglobulin G (IgG) antigen-binding fragment (Fab), was prepared similarly in SFPB to create a solution of equal concentration.
Equal volumes of primary and secondary antibodies were combined in a labelled tube, gently mixed, and incubated for 3 minutes at room temperature, resulting in a primary antibody concentration 10-fold greater than the desired final concentration (10 μg/mL for 1 μg/mL final). […]

[1] = test system: Contiguous 8mer peptides of LY75 protein; experiment: Peptide microarray epitope characterization; format: binding; conditions: 1 μg/mL LY75_A1, scale 1-65535
Description: The peptide microarray analysis was performed by LC Sciences, Houston TX, in brief the method comprised the following steps:—Contiguous 8mer peptides of LY75 protein having one amino acid overlap spanning residues 216 to 1666 of the full length LY75 protein were synthesized and immobilized on a microarray chip. The chip comprised three panels such that the experiment was performed in triplicate. The microarray was addressed with LY75_A1 to identify the peptides to which the antibody bound. The binding assay was performed under the following conditions:—
The microarray comprising the contiguous peptides in triplicate was washed with 1 mL of binding buffer at 4° C. for 20 min. It was then incubated with 1 μg/mL LY75_A1 in binding buffer (pH 7.0) at 4° C. for 2 hrs. The array was again washed with 0.5 mL of washing buffer at 4° C. for 30 min then incubated with 25 ng/ml anti-human IgG Alexa 647 conjugate in binding buffer (pH 7.0) at 4° C. for 1 hr. The array was again washed with 0.5 mL of washing buffer at 4° C. for 30 min. The array was then Scanned at 635 nm and PMT 500 and the signal Intensity was recorded. The peptide was classed as detectable if it was present in at least ⅔ legal duplicates. The average signal intensity of the replicates was reported as the final signal intensity. Results

T1 sequence (O60449 28-1722): as above

B1: LY75_A1: anti-LY75 human monoclonal antibody; VH SEQ ID NO:1, VL SEQ ID NO:2 (antibody, listed as Homo sapiens, V domains shown)
VH: EVQLVESGGGLVKPGGSLRLSCAASGFTYSNAWMSWVRQAPGKGLEWVGRIKSKTDGGTTDYAAPVQGRFTISRDDSKNTLYLQMNSLKTEDTAVYYCTIFGVVSFDYWGQGTLVTVSS
VL: DVQMTQSPSSLSASVGDRVTITCRASQSISDYLSWYQQRPGKAPNLLIYAASNLKTGVPSRFSGSGSGTDFTLTISTLQPEDFATYYCQQSYRSPWTFGQGTKVEIKR
- blocking of binding of anti-LY75-mAb-MCC-DM1 (LY75 on COLO205 cells): unable to block binding of anti-LY75-mAb-MCC-DM1
- sections exhibiting robust (+++) staining (LY75): 55%
- sections showing positive staining (LY75): 77%
- average signal for all spots on the array [1]: about 885
- maximum signal seen for binding ([1]; background cut off 3000): 25000
